What all share (assay): other fluorescence titration
For assay [1], the target named is recombinant His-tagged human cyclin A2 (sequence 174-432) (human) (UniProt P20248).
Assay [2] has the same target. The source holds these as a separate data set.
For assay [3] the target is unchanged. The source holds these as a separate data set.
Assay [4] shares this target. The source holds these as a separate data set.
Assay [5] has the same target. This is another data set of the same source.
Assay [6] shares this target. This is another data set of the same source.
Assay [7] shares this target. The source holds these as a separate data set.

Like-named read-outs stand apart in the source and are kept apart here. *: point of attachment. X2 = 4‑((4-methylpiperazin-1-yl)methyl)benzoic acid, CN1CCN(Cc2ccc(C(=O)*)cc2)CC1

Chain of UniProt P20248 (P20248 174-432): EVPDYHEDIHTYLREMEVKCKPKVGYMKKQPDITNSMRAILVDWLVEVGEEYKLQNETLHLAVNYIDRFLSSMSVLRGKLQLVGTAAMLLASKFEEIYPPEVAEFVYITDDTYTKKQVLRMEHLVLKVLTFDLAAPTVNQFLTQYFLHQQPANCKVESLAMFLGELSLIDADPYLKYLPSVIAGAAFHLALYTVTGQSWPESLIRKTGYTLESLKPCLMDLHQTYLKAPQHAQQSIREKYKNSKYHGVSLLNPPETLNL

For X2-RLIF-NH2 [SCCP5921: 4-((4-methylpiperazin-1-yl)methyl)benzoic acid ligated to the p21 C-terminus, RLIF], the equilibrium dissociation constant (Kd) (as a rule, the equilibrium constant for the complex coming apart) in assay [1] was 5.28 µM; in assay [2], 4.77 µM; in assay [3] it was 6.59 µM; in assay [4] it was 3.55 µM; in assay [5], 6.77 µM; in assay [6], 5.44 µM. The Kd in assay [7] is 3.21 µM.

(Values after publication PMC4456239.)
